Legend:
Conditions in all cases: remark: other sources report otherwise
[1] = biological target: 3xflag-LRRK2 (leucine rich repeat kinase 2), wild type (UniProt Q5S007); test: native gel or EMSA; native PAGE of 3xflag-LRRK2 purified from lysates treated with GDP, GTPγS or GMPPCP (10, 100 and 500 µM, 30 minutes at 30°C); silver stain and flag-M2 immunoblot
[2] = biological target: 3xflag-LRRK2 (leucine rich repeat kinase 2), wild type (UniProt Q5S007); test: SEC; purified 3xflag-LRRK2 (flag-M2 beads, eluted with 3xflag peptide), Superose 6 10/300 GL, 4°C, SEC running buffer with 10 µM GDP or GTPγS; fractions read by flag-M2 dot blot; higher molecular weight peaks also seen
[3] = biological target: 3xflag-LRRK2 (leucine rich repeat kinase 2), wild type (UniProt Q5S007); test: SEC; cleared HEK293T cell lysates expressing 3xflag-LRRK2, Superose 6 10/300 GL, 4°C, SEC running buffer (25 mM Tris pH 7.4, 150 mM NaCl, 5 mM MgCl2, 0.02% Triton, 1 mM DTT) with 10 µM GDP or GTPγS; fractions read by flag-M2 dot blot

stoichiometry N [1]: 2 | stoichiometry N [2]: 2 | stoichiometry N [3]: 2
Substance: 3xflag-LRRK2 (leucine rich repeat kinase 2), wild type, Q5S007 1-2527
